Test results from patent US6723841.
Bridge positions count the residues as written; N and C are the ends. Ends that are not written are not given here.

T1: human CRF2α receptor (human) (UniProt Q13324)
T1 sequence: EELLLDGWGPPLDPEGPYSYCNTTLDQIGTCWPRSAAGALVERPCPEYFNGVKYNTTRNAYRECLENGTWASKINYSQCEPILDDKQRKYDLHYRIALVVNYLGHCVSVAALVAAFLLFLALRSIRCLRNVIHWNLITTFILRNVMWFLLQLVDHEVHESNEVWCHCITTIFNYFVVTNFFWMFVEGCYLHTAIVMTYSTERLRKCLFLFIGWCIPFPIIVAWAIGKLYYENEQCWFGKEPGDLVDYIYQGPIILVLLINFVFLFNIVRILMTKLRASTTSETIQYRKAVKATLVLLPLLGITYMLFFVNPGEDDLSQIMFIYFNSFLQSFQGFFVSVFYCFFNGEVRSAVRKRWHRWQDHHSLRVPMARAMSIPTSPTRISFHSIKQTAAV


What was measured:
Assay in all cases: cell-based or functional assay
[1] = target: human CRF1 receptor (human) (UniProt P34998)
human CRF1 receptor (human), sequence (P34998 24-415): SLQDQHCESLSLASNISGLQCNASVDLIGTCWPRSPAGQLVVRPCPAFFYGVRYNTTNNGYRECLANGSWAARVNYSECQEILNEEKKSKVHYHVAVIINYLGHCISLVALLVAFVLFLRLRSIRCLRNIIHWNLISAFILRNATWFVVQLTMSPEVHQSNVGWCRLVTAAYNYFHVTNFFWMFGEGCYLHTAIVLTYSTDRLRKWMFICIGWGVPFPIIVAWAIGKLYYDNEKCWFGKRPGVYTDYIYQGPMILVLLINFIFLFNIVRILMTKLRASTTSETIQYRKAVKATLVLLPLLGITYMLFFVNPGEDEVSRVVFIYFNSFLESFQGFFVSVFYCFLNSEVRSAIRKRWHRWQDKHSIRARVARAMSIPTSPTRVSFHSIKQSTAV

[2] = target: T1, human CRF2α receptor (human)
[3] = target: rat CRF2β receptor (rat)

EC50 of adenylate cyclase stimulation (cAMP) [1] [nM]	EC50 of adenylate cyclase stimulation (cAMP) [2] [nM]	EC50 of adenylate cyclase stimulation (cAMP) [3] [nM]	Binder
10	80	–	SQEPPISLDLTFHLLREVLEMTKADQLAQQAHSNRKLLDIA (peptide, UniProt P01142 148-188, looked up, ends and bridges not checked) [ovine CRF]
30	100	–	SQEPPISLDLTFHLLREVLEMTKADQLAQQAHNNRKLLDIA (peptide, UniProt Q95MI6 148-188, looked up) [bovine CRF]
1000	> 1000	–	SQEPPISLDLTFHLLREVLEMTKADQLAQQAHNNRKLLDIA-OH (peptide, UniProt Q95MI6 148-188, looked up) [deamidated bovine CRF]
> 1000	> 1000	–	YADAIFTNSYRKVLGQLSARKLLQDIMSRQQGESNQERGARARL (peptide, UniProt P01286 32-75, looked up, ends and bridges not checked) [hGRF]
3	0.5	0.4	QGPPISIDLSLELLRKMIEIEKQEKEKQQAANNRLLLDTI (peptide, UniProt P01144 1-40, looked up) [Sauvagine]
> 1000	> 1000	–	HSDAVFTDNYTRLRKQMAVKKYLNSILN (peptide, UniProt P01282 125-152, looked up, species assumed, ends and bridges not checked) [VIP]
4	20	1	SEEPPISLDLTFHLLREVLEMARAEQLAQQAHSNRKLMEII (peptide, UniProt P06850 154-194, looked up) [rat/human CRF]
> 1000	> 1000	–	CYFQNCPRG-NH2 (peptide, UniProt P01185 20-28, looked up, species assumed, disulfide 1-6; ends not checked) [AVP]
> 1000	> 1000	–	FHLLREVLEMARAEQLAQQAHSNRKLMEII (peptide, UniProt P06850 165-194, looked up, d-Phe (position not given)) [d-Phe r/hCRF(12-41)]
> 1000	> 1000	–	ISLDLTFHLLREVLEMARAEQLAQQAHS (peptide, UniProt P06850 159-186, looked up) [r/hCRF(6-33)]
